Test results published in patent US20220411477A1 (MONASH UNIVERSITY, published 2022).

T1: AMH-specific type II receptor, AMHR2 (UniProt Q16671 18-573, limits assumed)
T1 sequence (looked up): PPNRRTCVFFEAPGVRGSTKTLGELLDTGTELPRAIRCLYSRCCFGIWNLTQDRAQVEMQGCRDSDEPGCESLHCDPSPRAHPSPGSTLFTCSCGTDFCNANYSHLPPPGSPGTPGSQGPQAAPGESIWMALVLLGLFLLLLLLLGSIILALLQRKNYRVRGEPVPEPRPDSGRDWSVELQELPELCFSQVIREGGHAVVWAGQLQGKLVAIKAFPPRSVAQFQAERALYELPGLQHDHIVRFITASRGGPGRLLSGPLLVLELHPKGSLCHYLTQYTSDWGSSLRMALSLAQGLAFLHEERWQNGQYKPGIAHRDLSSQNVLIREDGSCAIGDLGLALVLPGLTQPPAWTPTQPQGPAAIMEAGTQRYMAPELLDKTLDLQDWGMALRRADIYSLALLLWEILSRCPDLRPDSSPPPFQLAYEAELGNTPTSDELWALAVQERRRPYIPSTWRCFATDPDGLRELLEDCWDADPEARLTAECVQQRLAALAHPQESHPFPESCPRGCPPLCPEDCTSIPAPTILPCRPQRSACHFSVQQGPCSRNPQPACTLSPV


Target: T1, AMH-specific type II receptor, AMHR2
Test: cell-based or functional assay

Row | Binder | AMH activity relative to wild type (%) | EC50 in COV434 BRE-Luc assay | Maximal response relative to wild-type (%) | Potency relative to ‘wild-type’
1 | hAMH+SCUT+RSA (Wild type) AMH (ligand) chain 1: HHHHHHPAVGTSGLIFREDLDWPPGSPQEPLCLVALGGDSNGSSSPLRVVGALSAYEQAFLGAVQRARWGPRDLATFGVCNTGDRQAALPSLRRLGAWLQDPGGQRLVVLHLEEVTWEPTPSLRFQEPPPGGAGPPELALLVLYPGPGPEVTVTRAGLPGAQSLCPSRDTRYLVLAVDRPAGAWRGSGLALTLQPRGEDSRLSTARLQALLFGDDHRCFTRMTPALLLLPRSEPAPLPAHGQLDTVPFPPPRPSAELEESPPSADPFLETLTRLVRALRVPPARASAPRLALDPDALAGFPQGLVNLSDPAALERLLDGEEPLLLLLRPTAATTGDPAPLHDPTSAPWATALARRVAAELQAAAAELRSLPGLPPATAPLLARLLALCPGGPGGLGDPLRALLLLKALQGLRVEWRGRDPRGPGISSRKKR chain 2: SVSSSAGATAADGPCALRELSVDLRAERSVLIPETYQANNCQGVCGWPQSDRNPRYGNHVVLLLKMQARGAALARPPCCVPTAYAGKLLISLSEERISAHHVPNMVATECGCR | 100% | ~6 ng/mL |  | 
2 | hAMH mutant S538A (ligand) chain 1: HHHHHHPAVGTSGLIFREDLDWPPGSPQEPLCLVALGGDSNGSSSPLRVVGALSAYEQAFLGAVQRARWGPRDLATFGVCNTGDRQAALPSLRRLGAWLQDPGGQRLVVLHLEEVTWEPTPSLRFQEPPPGGAGPPELALLVLYPGPGPEVTVTRAGLPGAQSLCPSRDTRYLVLAVDRPAGAWRGSGLALTLQPRGEDSRLSTARLQALLFGDDHRCFTRMTPALLLLPRSEPAPLPAHGQLDTVPFPPPRPSAELEESPPSADPFLETLTRLVRALRVPPARASAPRLALDPDALAGFPQGLVNLSDPAALERLLDGEEPLLLLLRPTAATTGDPAPLHDPTSAPWATALARRVAAELQAAAAELRSLPGLPPATAPLLARLLALCPGGPGGLGDPLRALLLLKALQGLRVEWRGRDPRGPGISSRKKR chain 2: SVSSSAGATAADGPCALRELSVDLRAERSVLIPETYQANNCQGVCGWPQSDRNPRYGNHVVLLLKMQARGAALARPPCCVPTAYAGKLLIALSEERISAHHVPNMVATECGCR |  |  | ~65% | ~4 fold less potent
3 | hAMH mutant L536M (ligand) chain 1: HHHHHHPAVGTSGLIFREDLDWPPGSPQEPLCLVALGGDSNGSSSPLRVVGALSAYEQAFLGAVQRARWGPRDLATFGVCNTGDRQAALPSLRRLGAWLQDPGGQRLVVLHLEEVTWEPTPSLRFQEPPPGGAGPPELALLVLYPGPGPEVTVTRAGLPGAQSLCPSRDTRYLVLAVDRPAGAWRGSGLALTLQPRGEDSRLSTARLQALLFGDDHRCFTRMTPALLLLPRSEPAPLPAHGQLDTVPFPPPRPSAELEESPPSADPFLETLTRLVRALRVPPARASAPRLALDPDALAGFPQGLVNLSDPAALERLLDGEEPLLLLLRPTAATTGDPAPLHDPTSAPWATALARRVAAELQAAAAELRSLPGLPPATAPLLARLLALCPGGPGGLGDPLRALLLLKALQGLRVEWRGRDPRGPGISSRKKR chain 2: SVSSSAGATAADGPCALRELSVDLRAERSVLIPETYQANNCQGVCGWPQSDRNPRYGNHVVLLLKMQARGAALARPPCCVPTAYAGKLMISLSEERISAHHVPNMVATECGCR |  |  | ~80% | ~3 fold less potent
4 | hAMH mutant L536I (ligand) chain 1: HHHHHHPAVGTSGLIFREDLDWPPGSPQEPLCLVALGGDSNGSSSPLRVVGALSAYEQAFLGAVQRARWGPRDLATFGVCNTGDRQAALPSLRRLGAWLQDPGGQRLVVLHLEEVTWEPTPSLRFQEPPPGGAGPPELALLVLYPGPGPEVTVTRAGLPGAQSLCPSRDTRYLVLAVDRPAGAWRGSGLALTLQPRGEDSRLSTARLQALLFGDDHRCFTRMTPALLLLPRSEPAPLPAHGQLDTVPFPPPRPSAELEESPPSADPFLETLTRLVRALRVPPARASAPRLALDPDALAGFPQGLVNLSDPAALERLLDGEEPLLLLLRPTAATTGDPAPLHDPTSAPWATALARRVAAELQAAAAELRSLPGLPPATAPLLARLLALCPGGPGGLGDPLRALLLLKALQGLRVEWRGRDPRGPGISSRKKR chain 2: SVSSSAGATAADGPCALRELSVDLRAERSVLIPETYQANNCQGVCGWPQSDRNPRYGNHVVLLLKMQARGAALARPPCCVPTAYAGKLIISLSEERISAHHVPNMVATECGCR |  |  | ~65% | ~7 fold less potent

More lines, now with the values ahead:

Row | AMH activity relative to wild type (%) | EC50 in COV434 BRE-Luc assay | Maximal response relative to wild-type (%) | Potency relative to ‘wild-type’ | Binder
5 | 100% | ~6 ng/mL |  |  | hAMH+SCUT+RSA double mutant G533A+L535M (ligand) chain 1: HHHHHHPAVGTSGLIFREDLDWPPGSPQEPLCLVALGGDSNGSSSPLRVVGALSAYEQAFLGAVQRARWGPRDLATFGVCNTGDRQAALPSLRRLGAWLQDPGGQRLVVLHLEEVTWEPTPSLRFQEPPPGGAGPPELALLVLYPGPGPEVTVTRAGLPGAQSLCPSRDTRYLVLAVDRPAGAWRGSGLALTLQPRGEDSRLSTARLQALLFGDDHRCFTRMTPALLLLPRSEPAPLPAHGQLDTVPFPPPRPSAELEESPPSADPFLETLTRLVRALRVPPARASAPRLALDPDALAGFPQGLVNLSDPAALERLLDGEEPLLLLLRPTAATTGDPAPLHDPTSAPWATALARRVAAELQAAAAELRSLPGLPPATAPLLARLLALCPGGPGGLGDPLRALLLLKALQGLRVEWRGRDPRGPGISSRKKR chain 2: SVSSSAGATAADGPCALRELSVDLRAERSVLIPETYQANNCQGVCGWPQSDRNPRYGNHVVLLLKMQARGAALARPPCCVPTAYAAKMLISLSEERISAHHVPNMVATECGCR
6 | 100% | ~6 ng/mL |  |  | hAMH+SCUT+RSA L535M mutant (ligand) chain 1: HHHHHHPAVGTSGLIFREDLDWPPGSPQEPLCLVALGGDSNGSSSPLRVVGALSAYEQAFLGAVQRARWGPRDLATFGVCNTGDRQAALPSLRRLGAWLQDPGGQRLVVLHLEEVTWEPTPSLRFQEPPPGGAGPPELALLVLYPGPGPEVTVTRAGLPGAQSLCPSRDTRYLVLAVDRPAGAWRGSGLALTLQPRGEDSRLSTARLQALLFGDDHRCFTRMTPALLLLPRSEPAPLPAHGQLDTVPFPPPRPSAELEESPPSADPFLETLTRLVRALRVPPARASAPRLALDPDALAGFPQGLVNLSDPAALERLLDGEEPLLLLLRPTAATTGDPAPLHDPTSAPWATALARRVAAELQAAAAELRSLPGLPPATAPLLARLLALCPGGPGGLGDPLRALLLLKALQGLRVEWRGRDPRGPGISSRKKR chain 2: SVSSSAGATAADGPCALRELSVDLRAERSVLIPETYQANNCQGVCGWPQSDRNPRYGNHVVLLLKMQARGAALARPPCCVPTAYAGKMLISLSEERISAHHVPNMVATECGCR
7 | 500% | ~1.2 ng/mL | ~190% | ~5 fold more potent | hAMH+SCUT+RSA G533K mutant (ligand) chain 1: HHHHHHPAVGTSGLIFREDLDWPPGSPQEPLCLVALGGDSNGSSSPLRVVGALSAYEQAFLGAVQRARWGPRDLATFGVCNTGDRQAALPSLRRLGAWLQDPGGQRLVVLHLEEVTWEPTPSLRFQEPPPGGAGPPELALLVLYPGPGPEVTVTRAGLPGAQSLCPSRDTRYLVLAVDRPAGAWRGSGLALTLQPRGEDSRLSTARLQALLFGDDHRCFTRMTPALLLLPRSEPAPLPAHGQLDTVPFPPPRPSAELEESPPSADPFLETLTRLVRALRVPPARASAPRLALDPDALAGFPQGLVNLSDPAALERLLDGEEPLLLLLRPTAATTGDPAPLHDPTSAPWATALARRVAAELQAAAAELRSLPGLPPATAPLLARLLALCPGGPGGLGDPLRALLLLKALQGLRVEWRGRDPRGPGISSRKKR chain 2: SVSSSAGATAADGPCALRELSVDLRAERSVLIPETYQANNCQGVCGWPQSDRNPRYGNHVVLLLKMQARGAALARPPCCVPTAYAKKLLISLSEERISAHHVPNMVATECGCR
8 | 100% | ~6 ng/mL |  |  | hAMH+SCUT+RSA G533H mutant (ligand) chain 1: HHHHHHPAVGTSGLIFREDLDWPPGSPQEPLCLVALGGDSNGSSSPLRVVGALSAYEQAFLGAVQRARWGPRDLATFGVCNTGDRQAALPSLRRLGAWLQDPGGQRLVVLHLEEVTWEPTPSLRFQEPPPGGAGPPELALLVLYPGPGPEVTVTRAGLPGAQSLCPSRDTRYLVLAVDRPAGAWRGSGLALTLQPRGEDSRLSTARLQALLFGDDHRCFTRMTPALLLLPRSEPAPLPAHGQLDTVPFPPPRPSAELEESPPSADPFLETLTRLVRALRVPPARASAPRLALDPDALAGFPQGLVNLSDPAALERLLDGEEPLLLLLRPTAATTGDPAPLHDPTSAPWATALARRVAAELQAAAAELRSLPGLPPATAPLLARLLALCPGGPGGLGDPLRALLLLKALQGLRVEWRGRDPRGPGISSRKKR chain 2: SVSSSAGATAADGPCALRELSVDLRAERSVLIPETYQANNCQGVCGWPQSDRNPRYGNHVVLLLKMQARGAALARPPCCVPTAYAHKLLISLSEERISAHHVPNMVATECGCR
9 | 350% | ~1.8 ng/mL | ~140% | ~3 fold more potent | hAMH+SCUT+RSA G533S mutant (ligand) chain 1: HHHHHHPAVGTSGLIFREDLDWPPGSPQEPLCLVALGGDSNGSSSPLRVVGALSAYEQAFLGAVQRARWGPRDLATFGVCNTGDRQAALPSLRRLGAWLQDPGGQRLVVLHLEEVTWEPTPSLRFQEPPPGGAGPPELALLVLYPGPGPEVTVTRAGLPGAQSLCPSRDTRYLVLAVDRPAGAWRGSGLALTLQPRGEDSRLSTARLQALLFGDDHRCFTRMTPALLLLPRSEPAPLPAHGQLDTVPFPPPRPSAELEESPPSADPFLETLTRLVRALRVPPARASAPRLALDPDALAGFPQGLVNLSDPAALERLLDGEEPLLLLLRPTAATTGDPAPLHDPTSAPWATALARRVAAELQAAAAELRSLPGLPPATAPLLARLLALCPGGPGGLGDPLRALLLLKALQGLRVEWRGRDPRGPGISSRKKR chain 2: SVSSSAGATAADGPCALRELSVDLRAERSVLIPETYQANNCQGVCGWPQSDRNPRYGNHVVLLLKMQARGAALARPPCCVPTAYASKLLISLSEERISAHHVPNMVATECGCR
